Substitutions are numbered along the chain they refer to.
Experiments:
[1] = target: T1, NBD (nonamer binding domain of RAG1) (mouse, UniProt P15919 384-461); experiment: EMSA; 5 mM Ca2+; NBD EMSA: 10 mM Tris-HCl pH 7.5, 33 mM KCl, 5 mM CaCl2, 2 mM DTT, 0.1 mg/ml BSA, 6% glycerol, 15 min 30 C; cRAG EMSA: 22.5 mM MOPS-KOH pH 7.0, 20% DMSO, 2.2 mM; conditions: protein: recombinant, tags: N-terminal His6 (pET28a)
T1 sequence: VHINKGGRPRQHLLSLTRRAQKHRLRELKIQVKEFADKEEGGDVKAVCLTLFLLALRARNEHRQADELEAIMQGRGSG

[2] = target: T2, MBP-cRAG1 (core RAG1);cRAG2 (core RAG2) (mouse?;mouse?, UniProt P15919;P21784 384-1040;1-383, |); experiment: EMSA; cRAG buffer; NBD EMSA: 10 mM Tris-HCl pH 7.5, 33 mM KCl, 5 mM CaCl2, 2 mM DTT, 0.1 mg/ml BSA, 6% glycerol, 15 min 30 C; cRAG EMSA: 22.5 mM MOPS-KOH pH 7.0, 20% DMSO, 2.2 mM; conditions: protein: recombinant;recombinant, tags: MBP;MBP, chain copies: 2;2
T2 sequence 1: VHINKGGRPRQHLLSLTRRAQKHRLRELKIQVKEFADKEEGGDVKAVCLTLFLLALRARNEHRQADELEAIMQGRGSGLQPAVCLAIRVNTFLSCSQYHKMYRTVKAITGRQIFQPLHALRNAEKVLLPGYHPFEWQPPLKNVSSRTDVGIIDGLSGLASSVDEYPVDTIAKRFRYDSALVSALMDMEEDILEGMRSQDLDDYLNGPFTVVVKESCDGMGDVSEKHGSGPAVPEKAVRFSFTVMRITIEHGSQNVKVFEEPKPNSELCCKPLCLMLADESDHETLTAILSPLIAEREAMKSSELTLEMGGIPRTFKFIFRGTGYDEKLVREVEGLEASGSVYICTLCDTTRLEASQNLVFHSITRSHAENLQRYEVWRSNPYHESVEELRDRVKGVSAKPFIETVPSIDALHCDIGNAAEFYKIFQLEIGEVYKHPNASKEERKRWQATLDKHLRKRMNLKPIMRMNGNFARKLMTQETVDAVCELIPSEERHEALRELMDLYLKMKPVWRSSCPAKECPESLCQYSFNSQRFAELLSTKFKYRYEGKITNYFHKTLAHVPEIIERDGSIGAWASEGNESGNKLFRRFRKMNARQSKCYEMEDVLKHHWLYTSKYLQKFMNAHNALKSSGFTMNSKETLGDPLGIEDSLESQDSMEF
T2 sequence 2: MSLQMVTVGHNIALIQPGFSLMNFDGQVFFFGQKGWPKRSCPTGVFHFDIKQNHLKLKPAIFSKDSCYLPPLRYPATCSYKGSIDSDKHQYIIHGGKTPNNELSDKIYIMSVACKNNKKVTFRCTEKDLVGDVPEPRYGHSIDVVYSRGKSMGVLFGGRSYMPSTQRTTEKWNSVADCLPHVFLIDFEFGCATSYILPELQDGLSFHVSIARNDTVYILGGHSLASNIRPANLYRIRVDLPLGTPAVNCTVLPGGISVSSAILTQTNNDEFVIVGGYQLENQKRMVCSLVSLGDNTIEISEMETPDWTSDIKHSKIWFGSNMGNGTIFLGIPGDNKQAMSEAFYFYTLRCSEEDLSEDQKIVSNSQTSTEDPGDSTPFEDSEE

[3] = target: T1, NBD (nonamer binding domain of RAG1); experiment: EMSA; 5 mM Ca2+; no significant binding; NBD EMSA: 10 mM Tris-HCl pH 7.5, 33 mM KCl, 5 mM CaCl2, 2 mM DTT, 0.1 mg/ml BSA, 6% glycerol, 15 min 30 C; cRAG EMSA: 22.5 mM MOPS-KOH pH 7.0, 20% DMSO, 2.2 mM; conditions: protein: recombinant; tags: N-terminal His6 (pET28a); label: 5' 32P on DR59; 6 nt T/T bubble, blunt ends
[4] = target: T1, NBD (nonamer binding domain of RAG1); experiment: BLI; 1x PBS, 30 C, 1:1 fit; NBD EMSA: 10 mM Tris-HCl pH 7.5, 33 mM KCl, 5 mM CaCl2, 2 mM DTT, 0.1 mg/ml BSA, 6% glycerol, 15 min 30 C; cRAG EMSA: 22.5 mM MOPS-KOH pH 7.0, 20% DMSO, 2.2 mM; conditions: protein: recombinant; tags: N-terminal His6 (pET28a); label: 5' biotin
[5] = label: 5' 32P on NM32, 6 nt T/T bubble, blunt ends
[6] = label: 5' 32P, 6 nt T/T bubble, blunt ends
[7] = label: 5' 32P, 6 nt G/G bubble, blunt ends, intermolecular G4 in K+ buffer
[8] = label: 5' 32P, 6 nt A/A bubble, blunt ends
[9] = label: 5' 32P, 6 nt C/C bubble, blunt ends
[10] = label: 5' 32P on AKN1, 5' overhang 1 nt at both ends

B1: A/T 10 bp (MS103/DR38) (dsDNA)
DNA 1: TTTTTTTTTT
DNA 2: AAAAAAAAAA
- binding result ([1]; label: 5' 32P, blunt): no binding

B2: poly T 22 (MS100) (ssDNA)
DNA: TTTTTTTTTTTTTTTTTTTTTT
- binding result ([1]; label: 5' 32P): no binding

B3: T/T bubble with nonamer (VII, NM32/NM33) (dsDNA)
DNA 1: GACCTGAGGGCGAGCTTTTTTCGAGTAACTTAAACAAAAACCCTGCT
DNA 2: AGCAGGGTTTTTGTTTAAGTTACTCGTTTTTTGCTCGCCCTCAGGTC
- binding result [1, 5]: binds
- binding result [2, 5]: binds

B4: A/T 16 bp (MS102/DR39) (dsDNA)
DNA 1: TTTTTTTTTTTTTTTT
DNA 2: AAAAAAAAAAAAAAAA
- binding result ([1]; label: 5' 32P, blunt): no binding

B5: A/T 22 bp (MS100/DR40) (dsDNA)
DNA 1: TTTTTTTTTTTTTTTTTTTTTT
DNA 2: AAAAAAAAAAAAAAAAAAAAAA
- binding result ([1]; label: 5' 32P, blunt): no binding

B6: T/T bubble heteroduplex (AKN11/SCR252) (dsDNA)
DNA 1: GACCTGAGGGCGAGCTTTTTTCGAGTAACTTAACAG
DNA 2: CTGTTAAGTTACTCGTTTTTTGCTCGCCCTCAGGTC
- binding result [1, 6]: no binding
- binding result [2, 6]: binds

B7: G/G bubble heteroduplex (V, AKN47/AKN48) (dsDNA)
DNA 1: GACCTGAGGGCGAGCGGGGGGCGAGTAACTTAACAG
DNA 2: CTGTTAAGTTACTCGGGGGGGGCTCGCCCTCAGGTC
- binding result [1, 7]: no binding
- binding result [2, 7]: no binding

B8: random dsDNA MN37/MN38 (XV or XVI) (dsDNA)
DNA 1: CCTCTCCCCCTCCCCTCCCCTCCCTCGCGC
DNA 2: GCGCGAGGGAGGGGAGGGGAGGGGGAGAGG
- binding result ([1]; label: 5' 32P on MN37, blunt): no binding

B9: T/T bubble with scrambled nonamer (XXXVII, DR59/DR60) (dsDNA)
DNA 1: GACCTGAGGGCGAGCTTTTTTCGAGTAACTTAAGCGGAGGTCCTGCT
DNA 2: AGCAGGACCTCCGCTTAAGTTACTCGTTTTTTGCTCGCCCTCAGGTC
- binding result [3]: no binding

B10: XXXI, 10 T at 5' end (MS22) (ssDNA)
DNA: TTTTTTTTTTGAGTCGGATCTTACGTCGTAACTTCGCTAC
- binding result ([1]; label: 5' 32P): binds

B11: biotinylated poly T 35 (ssDNA)
DNA: TTTTTTTTTTTTTTTTTTTTTTTTTTTTTTTTTTT
- Kd [4]: 450 nM

B12: ss poly T 35 (MS3) (ssDNA)
DNA: B11 DNA
- binding result ([2]; label: 5' 32P): no binding

B13: poly T 75 (MS6) (ssDNA)
DNA: TTTTTTTTTTTTTTTTTTTTTTTTTTTTTTTTTTTTTTTTTTTTTTTTTTTTTTTTTTTTTTTTTTTTTTTTTT
- binding result ([1]; label: 5' 32P): binds

B14: XXXIII, ssDNA lacking T stretch (ssDNA)
DNA: CTGTTAAGTTACTCGAAAAAAGCTCGCCCTCAGGTC
- binding result ([1]; label: 5' 32P): no binding

B15: A/A bubble heteroduplex (AKN18/AKN45) (dsDNA)
DNA 1: B14 DNA
DNA 2: GACCTGAGGGCGAGCAAAAAACGAGTAACTTAACAG
- binding result [1, 8]: no binding
- binding result [2, 8]: no binding

B16: C/C bubble heteroduplex (AKN46/AKN20) (dsDNA)
DNA 1: GACCTGAGGGCGAGCCCCCCCCGAGTAACTTAACAG
DNA 2: CTGTTAAGTTACTCGCCCCCCGCTCGCCCTCAGGTC
- binding result [1, 9]: no binding
- binding result [2, 9]: binds

B17: XXIX, 15 T at 3' end (MS16) (ssDNA)
DNA: GAGTCTGATCTTACCTCTTATTTTTTTTTTTTTTT
- binding result ([1]; label: 5' 32P): binds

B18: XXX, 20 T at 3' end (MS18) (ssDNA)
DNA: B17 DNA with C17T, A20T
- binding result ([1]; label: 5' 32P): binds

B19: A/T 28 bp (MS101/DR41) (dsDNA)
DNA 1: TTTTTTTTTTTTTTTTTTTTTTTTTTTT
DNA 2: AAAAAAAAAAAAAAAAAAAAAAAAAAAA
- binding result ([1]; label: 5' 32P, blunt): binds

B20: 12RSS (I, AKN1/AKN2) (dsDNA)
DNA 1: GATCAGCTGATAGCTACCACAGTGCTACAGACTGGAACAAAAACCCTGCT
DNA 2: TAGCAGGGTTTTTGTTCCAGTCTGTAGCACTGTGGTAGCTATCAGCTGAT
- binding result [1, 10]: binds
- binding result [2, 10]: binds

B21: random dsDNA MN45/MN46 (XV or XVI) (dsDNA)
DNA 1: AGAAGGGGGAGGGGAGGGAGAGAGGGGGCGCCG
DNA 2: CGGCGCCCCCTCTCTCCCTCCCCTCCCCCTTCT
- binding result ([1]; label: 5' 32P on MN45, blunt): no binding

B22: XXVII, 5 T at 3' end (MS12) (ssDNA)
DNA: GAGTCTGATCTTACCTCTTAACTTCGCTACTTTTT
- binding result ([1]; label: 5' 32P): binds

B23: XXVIII, 10 T at 3' end (MS14) (ssDNA)
DNA: B17 DNA with T21A, T22C, T25C
- binding result ([1]; label: 5' 32P): binds

B24: poly T 16 (MS102) (ssDNA)
DNA: TTTTTTTTTTTTTTTT
- binding result ([1]; label: 5' 32P): no binding

B25: poly T 10 (MS103) (ssDNA)
DNA: TTTTTTTTTT
- binding result ([1]; label: 5' 32P): no binding

B26: poly T 28 (MS101) (ssDNA)
DNA: TTTTTTTTTTTTTTTTTTTTTTTTTTTT
- binding result ([1]; label: 5' 32P): binds

Source: publication PMC4705477, “Biochemical Characterization of Nonamer Binding Domain of RAG1 Reveals its Thymine Preference with Respect to Length and Position”
